Positions count from the first letter of the chain named.

The assay addresses T1, soluble human CD3 epsilon chain (human, UniProt P07766 23-126).
T1 construct: also called CD3ε
Kind of assay: SPR. For orientation: SPR reads the build-up and loss of mass on a sensor chip optically.

T1 sequence (P07766 23-126 limits assumed): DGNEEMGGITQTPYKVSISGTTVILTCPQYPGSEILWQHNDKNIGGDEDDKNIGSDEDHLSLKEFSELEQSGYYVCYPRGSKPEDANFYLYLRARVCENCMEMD

B1: TR01H084-E22Hh/none-Hi-Kn010G3/L0270-k0 (antibody, V domains shown)
VH: QVQLVESGGGVVQPGGSLRLSCAASGFTFSNAWMHWVRQAPGKGLEWVAQIKDKSQNYATYYAESVKGRFTISRADSKNSIYLQMNSLKTEDTAVYYCRYVHYAAGYGVDIWGQGTTVTVSS
VL: DIVMTQSPLSLPVTPGEPASISCRSSQSLVHSNRQTYLHWYQQKPGQAPRLLIYKVSNRFSGVPDRFSGSGSGTDFTLKISRVEAEDVGVYYCGQGTQVPYTFGQGTKLEIK
notes: one-arm
One may read the Kd as the equilibrium constant for the complex coming apart. High values mean a looser complex, low ones a tighter complex. In turn, B1 gave a Kd of 27.6 nM.

B2: TR01H062-E22Hh/none-Hi-Kn010G3/L0000-k0 (antibody, V domains shown)
VH: B1 VH with V11L, G16R, G106S, I111A
VL: DIVMTQSPLSLPVTPGEPASISCRSSQSLVHSNRNTYLHWYQQKPGQAPRLLIYKVSNRFSGVPDRFSGSGSGTDFTLKISRVEAEDVGVYYCGQGTQVPYTFGQGTKLEIKR
notes: one-arm
The molecule B2 had a Kd of 31.3 nM.

B3: TR01H027-E22Hh/none-Hi-Kn010G3/L0000-k0 (antibody, V domains shown)
VH: B1 VH with V11L, D53S, A104S, G106S, I111A
VL: B2 VL
notes: one-arm
B3 gave a Kd of 69.5 nM.

B4: TR01H018-E22Hh/none-Hi-Kn010G3/L0000-k0 (antibody)
VH: B1 VH with V11L, D53G, Q56N, A104S, G106S
light: DIVMTQSPLSLPVTPGEPASISCRSSQSLVHSNRNTYLHWYQQKPGQAPRLLIYKVSNRFSGVPDRFSGSGSGTDFTLKISRVEAEDVGVYYCGQGTQVPYTFGQGTKLEIKRTVAAPSVFIFPPSDEQLKSGTASVVCLLNNFYPREAKVQWKVDNALQSGNSQESVTEQDSKDSTYSLSSTLTLSKADYEKHKVYACEVTHQGLSSPVTKSFNRGEC
notes: one-arm
B4 registered a Kd of 69.3 nM.

B5: TR01H004-E22Hh//-Hi-Kn010G3/L0000-k0 (antibody, V domains shown)
VH: B1 VH with G16R, D53A, Q56N, A75D, I81L, Y100R, A104Y, A105Y, G106Y, I111A
VL: B2 VL
notes: one-arm; also called TR01H004-E22Hh//-Hi-Kn010G3/10000-ko
As to B5, binding was put at a Kd of 135 nM.

B6: TR01H030-E22Hh/none-Hi-Kn010G3/L0000-k0 (antibody)
VH: B1 VH with G16R, D53G, Q56N, A104S, G106S
light: B4 light
notes: one-arm
In the case of B6, the Kd was 65.4 nM.

B7: TR01H020-E22Hh/none-Hi-Kn010G3/L0000-k0 (antibody, V domains shown)
VH: B1 VH with V11L, G16R, D53G, Q56N, E64P, A104S, G106S
VL: B2 VL
notes: one-arm
As for B7, the Kd is 64.8 nM.

B8: CE115HA252-E22Hh//-Hi-Kn010G3/L0000-k0 (antibody, V domains shown)
VH: QVQLVESGGGVVQPGRSLRLSCAASGFTFSNAWMHWVRQAPGKGLEWVAQIKAKSNNYKKYYAESVKGRFTISRDDSKNSLYLQMNSLKTEDTAVYYCRYVHYYYYYGVDAWGQGTTVTVSS
VL: B2 VL
notes: one-arm
For B8, the dissociation constant Kd stood at 9.48 nM.

B9: TR01H009-E22Hh/none-Hi-Kn010G3/L0000-k0 (antibody, V domains shown)
VH: B1 VH with V11L, G16R, D53A, Q56N, E64P, A104G, G106Y
VL: B2 VL
notes: one-arm
B9 showed a dissociation constant (Kd) of 31.5 nM.

B10: CE115HA121-E22Hh/-Hi-Kn010G3/L0000-k0 (antibody, V domains shown)
VH: B8 VH with Q50L, K59A, K60T, Y104G, Y105A
VL: B2 VL
notes: one-arm
Regarding B10, binding was put at a Kd of 67.6 nM.

B11: CE115HA179-G1dh//-Hi-Kn010G3/L0000-k0 (antibody, V domains shown)
VH: B1 VH with V11L, G16R, D53A, Q56N, A104G, G106Y, D110Q, I111A
VL: B2 VL
notes: one-arm
Molecule B11 displayed a dissociation constant Kd of 8.35 nM.

B12: TR01H033-E22Hh/none-Hi-Kn010G3/L0000-k0 (antibody, V domains shown)
VH: B1 VH with V11L, G16R, D53S, A104S, G106S, I111Y
VL: B2 VL
notes: one-arm
As to B12, the Kd worked out at 48.8 nM.

B13: TR01H014-E22Hh/none-Hi-Kn010G3/L0000-k0 (antibody, V domains shown)
VH: B1 VH with V11L, G16R, D53G, Q56N, E64P, A104G, G106Y
VL: B2 VL
notes: one-arm
Molecule B13 displayed a Kd of 38.7 nM.

B14: TR01H017-E22Hh/none-Hi-Kn010G3/L0000-k0 (antibody, V domains shown)
VH: B1 VH with V11L, D53A, Q56N, A104G, G106Y
VL: B2 VL
notes: one-arm
B14: the Kd was 35 nM.

B15: TR01H032-E22Hh/none-Hi-Kn010G3/L0000-k0 (antibody, V domains shown)
VH: B1 VH with V11L, G16R, D53S, A104S, G106S, I111A
VL: B2 VL
notes: one-arm
With B15, the dissociation constant (Kd) came out at 57.3 nM.

B16: TR01H023-E22Hh/none-Hi-Kn010G3/L0000-k0 (antibody, V domains shown)
VH: B1 VH with V11L, D53G, A104S, G106S
VL: B2 VL
notes: one-arm
B16 gave a Kd of 79.4 nM.

B17: TR01H010-E22Hh/none-Hi-Kn010G3/L0000-k0 (antibody, V domains shown)
VH: B1 VH with V11L, G16R, D53A, Q56N, A104S, G106Y
VL: B2 VL
notes: one-arm
As to B17, the dissociation constant (Kd) came out at 37.3 nM.

B18: TR01H084-E22Hh/none-Hi-Kn010G3/L0272-k0 (antibody, V domains shown)
VH: B1 VH
VL: B1 VL with S28P
notes: one-arm
B18 gave a Kd of 31 nM.

B19: TR01H006-E22Hh/none-Hi-Kn010G3/L0000-k0 (antibody, V domains shown)
VH: B1 VH with V11L, G16R, D53A, A104G, G106Y
VL: B2 VL
notes: one-arm
Consider B19, for which the Kd amounted to 23 nM.

B20: CE115HA124-E22Hh//-Hi-Kn010G3/L0000-k0 (antibody, V domains shown)
VH: B8 VH with K54L, K59A, K60T, Y104G, Y105A
VL: B2 VL
notes: one-arm
On to B20, for which the Kd was 143 nM.

B21: CE115HA178-G1dh//-Hi-Kn010G3/L0000-k0 (antibody, V domains shown)
VH: B8 VH with V11L, K59A, K60T, L81I, Y104G, Y105A, D110Q
VL: B2 VL
notes: one-arm
B21 yielded a Kd of 10.9 nM.

B22: TR01H008-E22Hh/none-Hi-Kn010G3/L0000-k0 (antibody, V domains shown)
VH: B1 VH with V11L, G16R, D53G, Q56N, A104G, G106Y
VL: B2 VL
notes: one-arm
B22 had a Kd of 42.2 nM.

B23: TR01H031-E22Hh/none-Hi-Kn010G3/L0000-k0 (antibody)
VH: B1 VH with D53G, Q56N, A104S, G106S
light: B4 light
notes: one-arm
Consider B23, for which the affinity, expressed as Kd, was 75.5 nM.

B24: CE115HA177-G1dh//-Hi-Kn010G3/L0000-k0 (antibody, V domains shown)
VH: B1 VH with V11L, G16R, D53A, Q56N, A104G, G106Y, I111A
VL: B2 VL
notes: one-arm
The molecule B24 had an equilibrium dissociation constant (Kd) of 35.5 nM.

B25: TR01H012-E22Hh/none-Hi-Kn010G3/L0000-k0 (antibody, V domains shown)
VH: B1 VH with V11L, G16R, D53A, Q56N, A104Y, A105Y, G106S
VL: B2 VL
notes: one-arm
B25 had a dissociation constant Kd of 7.94 nM.

B26: TR01H021-E22Hh/none-Hi-Kn010G3/L0000-k0 (antibody, V domains shown)
VH: B1 VH with V11L, G16R, D53G, Q56N, A104S, G106S, I111A
VL: B2 VL
notes: one-arm
In turn, B26 returned an equilibrium dissociation constant (Kd) of 80.5 nM.

B27: TR01H022-E22Hh/none-Hi-Kn010G3/L0000-k0 (antibody, V domains shown)
VH: B1 VH with V11L, D53G, E64P, A104S, G106S
VL: B2 VL
notes: one-arm
Consider B27, for which the equilibrium dissociation constant (Kd) amounted to 75.8 nM.

B28: CE115HA192-E22Hh//-Hi-Kn010G3/L0000-k0 (antibody, V domains shown)
VH: B8 VH with K59A, K60T, Y105A
VL: B2 VL
notes: one-arm
In turn, B28 yielded a dissociation constant (Kd) of 50.5 nM.

B29: TR01H084-E22Hh/none-Hi-Kn010G3/L0271-k0 (antibody, V domains shown)
VH: B1 VH
VL: B1 VL with S28P, L29P
notes: one-arm
On to B29, for which binding was put at a Kd of 27.6 nM.

B30: TR01H025-E22Hh/none-Hi-Kn010G3/L0000-k0 (antibody, V domains shown)
VH: B1 VH with V11L, G16R, D53S, A104S, G106S
VL: B2 VL
notes: one-arm
Take B30: the affinity, expressed as Kd, was 38.6 nM.

B31: TR01H011-E22Hh/none-Hi-Kn010G3/L0000-k0 (antibody, V domains shown)
VH: B1 VH with V11L, G16R, D53A, Q56N, A104G, G106S
VL: B2 VL
notes: one-arm
As for B31, the Kd was 37.1 nM.

B32: CE115HA180-G1dh//-Hi-Kn010G3/L0000-k0 (antibody, V domains shown)
VH: B8 VH with K59A, K60T, D75A, Y104G, Y105A, D110Q
VL: B2 VL
notes: one-arm
B32 had a Kd of 16.8 nM.

B33: TR01H028-E22Hh/none-Hi-Kn010G3/L0000-k0 (antibody, V domains shown)
VH: B1 VH with D53S, A104S, G106S
VL: B2 VL
notes: one-arm
For B33, the dissociation constant Kd is 48 nM.

B34: TR01H019-E22Hh/none-Hi-Kn010G3/L0000-k0 (antibody, V domains shown)
VH: B1 VH with V11L, G16R, D53G, A104S, G106S
VL: B2 VL
notes: one-arm
On to B34, for which binding was characterised by a dissociation constant (Kd) of 68.5 nM.

B35: TR01H003-E22Hh//-Hi-Kn010G3/L0000-k0 (antibody, V domains shown)
VH: B8 VH with K59A, K60T, Y100R, Y104G, Y105A
VL: B2 VL
notes: one-arm
Molecule B35 displayed a Kd of 40.3 nM.

B36: TR01H013-E22Hh/none-Hi-Kn010G3/L0000-k0 (antibody, V domains shown)
VH: B1 VH with V11L, G16R, D53G, A104G, G106Y
VL: B2 VL
notes: one-arm
Consider B36, for which the affinity, expressed as Kd, was 49.4 nM.

B37: TR01H016-E22Hh/none-Hi-Kn010G3/L0000-k0 (antibody, V domains shown)
VH: B1 VH with V11L, G16R, D53G, Q56N, A104S, A105Y, G106S
VL: B2 VL
notes: one-arm
For B37, the Kd stood at 36.9 nM.

B38: TR01H029-E22Hh/none-Hi-Kn010G3/L0000-k0 (antibody, V domains shown)
VH: B1 VH with V11L, G16R, A23S, D53G, Q56N, A104S, G106S
VL: B2 VL
notes: one-arm
B38 had a Kd of 67 nM.

B39: TR01H026-E22Hh/none-Hi-Kn010G3/L0000-k0 (antibody, V domains shown)
VH: B1 VH with V11L, D53S, A104S, G106S
VL: B2 VL
notes: one-arm
Take B39: the dissociation constant Kd stood at 51.2 nM.

B40: TR01H007-E22Hh/none-Hi-Kn010G3/L0000-k0 (antibody, V domains shown)
VH: B1 VH with V11L, G16R, D53S, Q56N, A104G, G106Y
VL: B2 VL
notes: one-arm
For B40, the Kd worked out at 21.7 nM.

B41: TR01H024-E22Hh/none-Hi-Kn010G3/L0000-k0 (antibody, V domains shown)
VH: B1 VH with V11L, D53G, A104S, G106S, I111A
VL: B2 VL
notes: one-arm
Molecule B41 came in with a Kd of 108 nM.

For the origin of these results see patent publication US20250066503A1, “CELL INJURY INDUCING THERAPEUTIC DRUG FOR USE IN CANCER THERAPY” (CHUGAI SEIYAKU KABUSHIKI KAISHA, priority 2016, published 2025).
